The source of these data is US20250262210A1 (TRUSTEES OF COLUMBIA UNIVERSITY IN THE CITY OF NEW YORK, published 2025).

For assay [1], the target named is T1, FHOD1 (human, UniProt Q9Y613 2-1164).
T1 sequence (looked up): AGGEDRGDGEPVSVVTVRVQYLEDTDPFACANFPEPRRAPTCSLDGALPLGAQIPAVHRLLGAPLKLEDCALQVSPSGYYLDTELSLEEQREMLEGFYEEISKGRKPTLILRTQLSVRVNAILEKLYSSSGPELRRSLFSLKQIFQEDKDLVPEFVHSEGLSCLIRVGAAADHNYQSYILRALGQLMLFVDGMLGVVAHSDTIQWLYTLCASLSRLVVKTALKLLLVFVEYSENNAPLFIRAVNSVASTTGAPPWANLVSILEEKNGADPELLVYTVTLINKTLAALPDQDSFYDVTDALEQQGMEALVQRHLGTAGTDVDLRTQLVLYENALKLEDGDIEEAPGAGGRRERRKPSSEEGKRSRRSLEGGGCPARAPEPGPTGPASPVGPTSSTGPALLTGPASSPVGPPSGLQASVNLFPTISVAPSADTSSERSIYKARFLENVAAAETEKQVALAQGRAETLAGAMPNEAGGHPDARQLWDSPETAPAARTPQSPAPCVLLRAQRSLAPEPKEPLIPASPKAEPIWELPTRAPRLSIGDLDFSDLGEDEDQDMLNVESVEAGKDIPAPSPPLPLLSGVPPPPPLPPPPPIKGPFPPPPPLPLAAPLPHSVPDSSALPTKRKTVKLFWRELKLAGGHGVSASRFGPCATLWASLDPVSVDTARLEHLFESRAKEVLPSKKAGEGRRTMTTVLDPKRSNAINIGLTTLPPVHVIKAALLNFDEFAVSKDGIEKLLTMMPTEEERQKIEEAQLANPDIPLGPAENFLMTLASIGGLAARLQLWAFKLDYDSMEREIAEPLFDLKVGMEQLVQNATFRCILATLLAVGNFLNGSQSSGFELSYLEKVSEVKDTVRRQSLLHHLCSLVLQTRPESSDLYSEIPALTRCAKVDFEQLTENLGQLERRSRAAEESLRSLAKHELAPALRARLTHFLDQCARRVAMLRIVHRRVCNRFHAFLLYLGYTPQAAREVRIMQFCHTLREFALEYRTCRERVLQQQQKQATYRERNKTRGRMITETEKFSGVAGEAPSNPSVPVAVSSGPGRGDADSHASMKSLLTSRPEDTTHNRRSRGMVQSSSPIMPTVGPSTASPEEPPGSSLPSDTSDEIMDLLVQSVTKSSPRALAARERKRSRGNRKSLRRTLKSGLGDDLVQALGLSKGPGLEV
Kind of assay: IP/MS, LZTR1 R810W-FLAG, U87. Put shortly:
(§1)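 Gel slices were reduced with 5 mM DTT, alkylated with 11 mM IAA and digested overnight at 37° C. with trypsin. Peptides were analysed on an Orbitrap Fusion Tribrid by LC-MS/MS.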

In assay [2] the target is T2, PPFIBP1 (human, UniProt Q86W92 1-1011, limits assumed).
T2 sequence (looked up): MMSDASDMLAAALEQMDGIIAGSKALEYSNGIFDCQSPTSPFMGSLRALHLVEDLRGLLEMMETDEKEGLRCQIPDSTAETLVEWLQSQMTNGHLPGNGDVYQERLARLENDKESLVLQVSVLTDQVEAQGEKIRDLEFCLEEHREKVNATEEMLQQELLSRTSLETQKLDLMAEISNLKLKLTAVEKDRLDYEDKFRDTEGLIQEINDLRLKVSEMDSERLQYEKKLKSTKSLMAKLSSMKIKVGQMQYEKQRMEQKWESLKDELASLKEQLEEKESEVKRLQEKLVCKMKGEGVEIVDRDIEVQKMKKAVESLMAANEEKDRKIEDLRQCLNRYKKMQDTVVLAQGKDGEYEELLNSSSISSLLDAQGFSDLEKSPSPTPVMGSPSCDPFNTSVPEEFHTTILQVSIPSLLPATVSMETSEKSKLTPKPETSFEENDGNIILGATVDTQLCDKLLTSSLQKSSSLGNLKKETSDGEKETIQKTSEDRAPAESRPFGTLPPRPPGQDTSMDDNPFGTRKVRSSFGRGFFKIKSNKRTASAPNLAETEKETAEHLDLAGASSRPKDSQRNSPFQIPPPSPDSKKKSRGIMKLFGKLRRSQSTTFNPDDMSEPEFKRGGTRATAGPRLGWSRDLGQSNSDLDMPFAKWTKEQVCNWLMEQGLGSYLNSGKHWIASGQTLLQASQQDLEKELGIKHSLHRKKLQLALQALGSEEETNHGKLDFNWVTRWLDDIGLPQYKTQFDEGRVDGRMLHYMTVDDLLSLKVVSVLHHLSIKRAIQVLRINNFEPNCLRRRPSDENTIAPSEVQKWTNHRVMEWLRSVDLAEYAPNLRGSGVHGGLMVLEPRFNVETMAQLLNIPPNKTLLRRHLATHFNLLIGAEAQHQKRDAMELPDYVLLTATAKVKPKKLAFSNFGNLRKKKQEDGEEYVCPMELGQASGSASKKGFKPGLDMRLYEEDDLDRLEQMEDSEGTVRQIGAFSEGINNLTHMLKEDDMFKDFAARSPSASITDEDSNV
Kind of assay: IP/MS, LZTR1 R810W-FLAG, U87. Put shortly: as §1

B1: LZTR1 R810W-FLAG (other, human, UniProt Q8N653 1-840, looked up)
chain: MAGPGSTGGQIGAAALAGGARSKVAPSVDFDHSCSDSVEYLTLNFGPFETVHRWRRLPPCDEFVGARRSKHTVVAYKDAIYVFGGDNGKTMLNDLLRFDVKDCSWCRAFTTGTPPAPRYHHSAVVYGSSMFVFGGYTGDIYSNSNLKNKNDLFEYKFATGQWTEWKIEGRLPVARSAHGATVYSDKLWIFAGYDGNARLNDMWTIGLQDRELTCWEEVAQSGEIPPSCCNFPVAVCRDKMFVFSGQSGAKITNNLFQFEFKDKTWTRIPTEHLLRGSPPPPQRRYGHTMVAFDRHLYVFGGAADNTLPNELHCYDVDFQTWEVVQPSSDSEVGGAEVPERACASEEVPTLTYEERVGFKKSRDVFGLDFGTTSAKQPTQPASELPSGRLFHAAAVISDAMYIFGGTVDNNIRSGEMYRFQFSCYPKCTLHEDYGRLWESRQFCDVEFVLGEKEECVQGHVAIVTARSRWLRRKITQARERLAQKLEQEAAPVPREAPGVAAGGARPPLLHVAIREAEARPFEVLMQFLYTDKIKYPRKGHVEDVLLIMDVYKLALSFQLCRLEQLCRQYIEASVDLQNVLVVCESAARLQLSQLKEHCLNFVVKESHFNQVIMMKEFERLSSPLIVEIVRRKQQPPPRTPLDQPVDIGTSLIQDMKAYLEGAGAEFCDITLLLDGHPRPAHKAILAARSSYFEAMFRSFMPEDGQVNISIGEMVPSRQAFESMLRYIYYGEVNMPPEDSLYLFAAPYYYGFYNNRLQAYCKQNLEMNVTVQNVLQILEAADKTQALDMKRHCLHIIVHQFTKVSKLPTLWSLSQQLLLDIIDSLASHISDKQCAELGADI
notes: Stably expressed in U87 cells by lentivirus; also called LZTR1-FLAG-R810W; LZTR1 RW; not shown: FLAG tag
On to B1, for which the binding result in assay [1] and in assay [2] was “binds” in each case.
